Assay results from patent publication US20240100187A1 (AC IMMUNE, published 2024).
Several values for one entry are separate records, joined by “and”; a condition that tells them apart may be missing. Equal values may be shown once.

Columns and labels:
[1] = target: T1, TDP-43 C-terminal peptide called TP-62; test: BLI (Octet), TP-62 peptide loaded at 500 nM on streptavidin biosensors, antibody from 100 nM in 2-fold serial dilutions, 900 s association, 600 s dissociation [cont.]
T1 construct: also called TP-62 peptide

[2] = target: T1, TDP-43 C-terminal peptide called TP-62; test: BLI (Octet), TP-62 on streptavidin biosensors, 2-fold dilutions from 100 nM, 30 C
[3] = target: T1, TDP-43 C-terminal peptide called TP-62; test: BLI (Octet), TP-62 on streptavidin biosensors; range told for the IgG constructs, transfected or vectorized
[4] = target: T2, human full length TDP-43 protein (human, UniProt Q13148 1-414); test: indirect ELISA on coated human full length TDP-43, anti-human secondary antibody, absorbance A450nm; apical supernatants of hCMEC/D3 in the OrganoPlate BBB model 3 days after transduction, and purified control antibodies
T2 construct: mature; Coated at 1 ug/ml on ELISA plates; also called hTDP-43 full length (FL) protein; human FL TDP-43
T2 sequence (Q13148 whole entry): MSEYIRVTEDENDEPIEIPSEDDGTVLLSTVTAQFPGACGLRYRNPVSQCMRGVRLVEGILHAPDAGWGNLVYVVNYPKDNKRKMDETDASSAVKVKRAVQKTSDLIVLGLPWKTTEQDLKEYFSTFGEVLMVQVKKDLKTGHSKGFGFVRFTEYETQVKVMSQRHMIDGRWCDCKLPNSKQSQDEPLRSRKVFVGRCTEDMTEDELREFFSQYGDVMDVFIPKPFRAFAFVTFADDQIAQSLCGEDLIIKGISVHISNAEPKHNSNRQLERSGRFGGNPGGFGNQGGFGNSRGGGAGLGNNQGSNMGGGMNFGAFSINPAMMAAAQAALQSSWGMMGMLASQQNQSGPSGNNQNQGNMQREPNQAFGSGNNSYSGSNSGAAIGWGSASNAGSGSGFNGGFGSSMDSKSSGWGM
Procedure: Supernatants from both top lane (apical) and bottom lane (basolateral) were collected 3 days post-transduction and antibody concentrations in the apical and basolateral compartments were determined by binding to human full-length (FL) TDP-43 using an indirect ELISA. In brief, ELISA plate coating with 1 μg/ml human FL TDP-43 was performed overnight in carbonate buffer at 4° C. Plates were washed with 0.05% Tween-20/PBS and then blocked with 1% bovine serum albumin (BSA) in 0.05% Tween-20/PBS for 1 hour at 37° C. Collected antibody-containing supernatants were then added to the plate and incubated for 2 hours at 37° C. after which the plates were washed. […] After the final wash, plates were incubated with pNPP solution and read at 405 nm after 1h using a plate reader (BioTek). […] Supernatants from both apical and basolateral sides were collected 3 days post-transduction and antibody concentrations in the apical and basolateral compartments were determined by binding to human FL TDP-43 using an indirect ELISA as described previously.

B1: MAB1 IgG (anti-TDP-43 antibody, chimeric human IgG1) (antibody, V domains shown)
VH: EVQLQQSGPELVKPGASVKISCKTSGFTFTEYSMHWVKQSHGKSLEWIGGINPNNGGTSYNQKFKGKATLTVDKSSSTAYMELRSLTSEDSAVYYCARESWGQGTTLTVSS
VL: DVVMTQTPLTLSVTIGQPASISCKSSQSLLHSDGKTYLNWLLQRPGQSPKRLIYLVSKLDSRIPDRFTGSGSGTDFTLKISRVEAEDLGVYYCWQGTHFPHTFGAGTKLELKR
notes: Chimeric human IgG1 anti-TDP-43; The IRES and 2 promoter constructs give the same correctly matured protein, whether transfected (CHO) or AAV-vectorized, so they are treated as one molecule; also called MAB1 hIgG1; IgG standard
Kd [1]: ~4.66 nM
koff [1]: 0.000435 s⁻¹
kon [1]: 170000 M⁻¹ s⁻¹
Kd [2]: 5.7 nM and 4.7 nM and 4.3 nM
Kd [3]: 4 to 6 nM
binding result [4]: binds
